In patent US20220242958A1, “BISPECIFIC NANOBODIES” (Ablynx N.V., priority 2013, published 2022):
Entries after “also recorded” stand apart in the source; their conditions may differ.

Experiments:
[1] = system: CD8+/CD4− gated and CD4+ gated T cells; experiment: Multi-colour FACS on TH1 activated T cells gated for CD8 or CD4; type: binding, human; settings: donor D838; anti-flag-APC detection
Experimental: To elucidate if CD4-IL12R bispecific polypeptides preferentially bind to the CD4+/IL12R+ TH1 cell subset within the pool of T cells, Nanobody binding was analysed to a pool of activated T cells gated for either CD8 (detected by Anti-hu CD8 PE-Cy7 conjugated monoclonal antibody (BD 557746) or CD4 (detected by Anti-hu CD4 alexa Fluor 488-conjugated polyclonal antibody (R&D FAB8165G) in a multi-colour FACS experiment. Nanobody binding to the CD8+/CD4− gated cells and to CD4+ gated cells was determined using anti-flag-APC (Prozyme PJ255) detection. In this experiment TH1 activated T cells from the same donor (D838) as shown in FIG. 3.6 were used.

cytotoxic CD8+ T cells = experiment: Binding to isolated CD8+ T cells (FACS); parameters: species or system human; settings: Nanobodies at 250 nM
Experimental: The pool of activated T cells comprises both CD4+ T cells and CD8+ T cells. To confirm the specificity of the anti-CD4 Nanobody and to exclude binding to CD4-negative cells, binding was assessed to cytotoxic CD8+ T cells isolated from human PBMCs using the CD8+ T Cell Isolation Kit (Miltenyi Biotech, 130-096-495), resulting in 94% purity of CD8+ cells. Binding specificity experiments were carried out using Nanobodies at 250 nM. […] Similar data were obtained for the IL12Rβ2 and IL23R Nanobodies.

[2] = biological target: T1, recombinant human CD4 / HIV1 gp120 interaction (Homo sapiens, UniProt P01730); experiment: gp120 - CD4 competition ELISA; type: binding; settings: 500 nM Nanobody
T1 construct: purchased Invitrogen
Experimental: Therefore a panel of CD4 Nanobodies was analysed for the capacity to block the interaction with the viral gp120 protein. Briefly, CD4 Nanobodies were analysed for the ability to compete with gp120 protein binding to recombinant CD4 in ELISA. Briefly, plates were coated with 20 ug/mL sheep anti-gp120 antibodies. lug/mL of HIV1 gp120 protein was captured for 1 hr at room temperature. Biotinylated recombinant human CD4 (Invitrogen) at 0.5 μg/mL was pre-incubated with 500 nM anti-CD4 Nanobodies, or control antibodies mouse anti-CD4 mAb B-A1 and F5 (Diaclone) and rabbit anti-CD4 pAb (ImmunoDiagnostic Inc) for 1hr, after which mixture was transferred to the coated plates and incubated for 1 hr. Detection of bound CD4 was done with Extravidin-peroxidase conjugate. […] Characteristics of Nanobody CD4 are found in Table 2.1.

[3] = biological target: T2, recombinant IL-3Rα ectodomain (Homo sapiens, UniProt P26951); experiment: SPR (ProteOn) on recombinant IL-3Rα ectodomain; type: binding
T2 construct: Immobilisation of recombinant IL-3Rα ectodomain (Sino Biologicals) was done until 761 RU; purchased Sino Biologicals
T2 sequence (P26951 19-305 limits assumed): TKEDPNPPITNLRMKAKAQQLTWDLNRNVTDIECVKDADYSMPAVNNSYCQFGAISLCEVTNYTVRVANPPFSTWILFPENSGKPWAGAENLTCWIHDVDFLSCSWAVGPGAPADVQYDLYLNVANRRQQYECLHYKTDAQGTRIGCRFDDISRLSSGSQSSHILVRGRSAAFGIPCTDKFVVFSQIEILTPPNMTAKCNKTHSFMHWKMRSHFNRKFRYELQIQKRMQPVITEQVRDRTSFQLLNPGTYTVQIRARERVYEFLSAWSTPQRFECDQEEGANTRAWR
Experimental: The affinities of CD123 specific Nanobodies were further investigated via Surface Plasmon Resonance (SPR) at ProteOn. Immobilisation of recombinant IL-3Rα ectodomain (Sino Biologicals) was done until 761 RU. The Nanobodies were applied at a highest concentration of 1 μM, followed by a three-fold titration, covering 5 further concentrations ranging from 1 μM to 4.1 nM. These were then applied in a single injection cycle, utilising the ProteOn's specific one-shot kinetics approach for kinetic analysis. Evaluation of the association/dissociation data was performed by fitting a 1:1 interaction model (Langmuir binding model). […] For CD123 Nanobodies the obtained KD values correlated well with the apparent affinities retrieved by cell binding EC50 values (see Table 3).

HEK293T-wt cells = experiment: FACS binding to non-transfected HEK293T-wt cells (specificity); parameters: species or system human; settings: data not shown
Experimental: Nanobody binding to membrane associated human IL-3Rα was analysed on HEK293T cells transfected with pcDNA3.1-IL3Rα (NM_002183.2) and non-transfected cells. Surface expression was confirmed by FACS using IL-3Rα specific antibodies (R&D MAB301 and BD Pharminogen 554528), followed by goat anti-mouse PE (Jackson Immuno Research 115-115-164). Briefly, serial dilutions of Nanobodies were allowed to associate for 30 minutes at 4° C. in FACS buffer (PBS 1×+10% FBS+0.05% azide). Following this, cells were washed by centrifugation and probed with 6.7 nM anti-FLAG for 30 minutes at 4° C., to detect bound Nanobody. Detection was done with […] for 30 minutes at 4° C. Cells were washed and incubated with TOPRO3 to stain for dead cells, which are then removed during the gating procedure. The cells were then analysed via a BD FACSArray. The results are depicted in FIG. 1.2.

[4] = biological target: T3, CXCR4 on Caki-CXCR4 cells (Homo sapiens, UniProt P61073); experiment: Binding of CXCR4 Nanobodies to Caki-CXCR4 cells
T3 construct: expressed in transfected cells; host or cells: Caki-CXCR4

[5] = biological target: T4, CXCR4 (membrane extracts of Hek-CXCR4 cells) (Homo sapiens, UniProt P61073); experiment: [125I]-CXCL12 radio-ligand displacement on membrane extracts of Hek-CXCR4 cells; type: binding
T4 construct: expressed in transfected cells; host or cells: Hek293 (membrane extracts)
Experimental: CXCR4 Nanobodies were analysed in radio-ligand displacement assay on membrane extracts of Hek-CXCR4 cells. The advantage of using the radiolabelled ligand is the increased sensitivity, and the low competitor concentration ensures the determination of Ki values (i.e. the real affinity constant) instead of measuring the IC50 value. This makes it possible to accurately determine the potencies of low affine Nanobodies, even though they may not reach full displacement.
Non-specific binding was determined in presence of 100 nM cold SDF-1. As controls full blocking CXCR4 Nanobodies 238D4 and 281A6 were included. The assay was performed three times, and average percentages of SDF-1 inhibition were calculated.

[6] = biological target: T5, CXCR4 on Jurkat E6-1 cells (Homo sapiens, UniProt P61073); experiment: CXCL12/SDF-1a induced chemotaxis of Jurkat E6-1 cells; type: cell-based; settings: monovalent CXCR4 Nanobodies, Table 4; read-out: Chemotaxis Jurkat IC50
T5 construct: endogenous in cells; host or cells: Jurkat E6-1
Experimental: To verify if bispecific CXCR4-IL3Ra polypeptides show increased affinity and potency on cells expressing both receptors, a CXCR4-dependent functional assay was carried out. To this end SDF-1a dependent chemotaxis on Jurkat E6-1 (CXCR4+/IL3Ra−), and MOLM-13 cells (CXCR4+/IL3Ra+) was performed for direct comparison of cells expressing both or only one receptor. Since the functional blockade is only mediated via CXCR4, avidity by the simultaneous binding of the anti-IL3Ra Nanobody® is expected to translate into increased potency in inhibition of chemotaxis.
Bispecific polypeptides were analyzed for inhibition of CXCL12-induced chemotaxis on cells endogenously expressing CXCR4. As chemoattractant a concentration of 750 pM SDF-1a was used on 100,000 cells/well for the Jurkat cell line, and 500,000 cells/well for the MOLM-13 cell line. On each plate the corresponding monovalent CXCR4 Nanobody was included as reference, allowing to calculate the fold increase of the bispecific within each plate. As additional control 1:1 mixtures of monovalent Nanobodies were included. In Table 9 the respective IC50 values are shown (average of n=3 experiments).
To verify if bispecific CXCR4-IL-3Ra polypeptides show increased affinity and potency on cells expressing both receptors, a CXCR4-dependent functional assay was done. Since MOLM-13 cells express CD4 in conjunction with CXCR4 and CD123, the same experimental set-up was used as described for the CXCR4-CD123 bispecific Nanobodies (see: Example 1.5.5).
Dose-dependent inhibition of CXCL12-induced chemotaxis by the panel of bispecific CD4-CXCR4 Nanobodies was determined on Jurkat (CXCR4+/CD4 low), and Molm-13 cells (CXCR4++/CD4++). As reference anti-CXCR4 antibody 12G5 was included on each plate. […] Remarkably, bispecific constructs in the inverse orientation were able to block CXCR4 function, despite their reduced affinity for CXCR4 due to the unfavourable position, although the blockade was partial. The much larger potency increases observed with Nanobodies targeting the CD4 and CXCR4 combination is most likely related to the higher relative expression levels of CD4 compared to CD123 on the Molm-13 cells.

[7] = biological target: T3, CXCR4 on Caki-CXCR4 cells; experiment: Biotinylated SDF-1 displacement on Caki-CXCR4 cells (flow cytometry); type: binding; settings: 30 nM biotinylated SDF-1; read-out: Ligand competition Biotin-SDF-1 IC50
Experimental: CXCR4 Nanobodies were analysed for their ability to compete with the ligand CXCL12 (or SDF-1a) for receptor binding, by displacement of biotinylated SDF-1 on Caki-CXCR4 cells in flow cytometry. To this end serial dilutions of Nanobodies were incubated with 30 nM of biotinylated SDF-1 (R&D Systems Fluorokine kit) on cells, after which ligand binding was visualised using extravidin-PE. The biotin-SDF-1 competitor concentration used in this assay was below the EC50 value obtained in dose-titration, where IC50 values should reflect the Ki.

[8] = biological target: T6, human IL12Rβ1 extracellular domain Fc-fusion (Homo sapiens, UniProt P42701); experiment: SPR (Biacore T100) on IL12Rβ1-Fc; type: binding
T6 construct: Fc-fusions of human IL12Rβ1, IL12Rβ2 and IL-23R extracellular domains; purchased R&D Systems #839-B1
Experimental: The precise binding affinities of the purified Nanobodies were determined in a multi-cycle kinetic analysis using Surface Plasmon Resonance analysis (Biacore T100) on Fc-fusions of human IL12Rβ1, IL12Rβ2 and IL-23R extracellular domains (R&D Systems, #839-B1, #1959-B2, #1400-IR). Sensorchips CM5 were immobilized with anti-hIgG antibody (GE Healthcare, BR-1008-39), after which receptors were captured at 5 μg/ml protein and contact time of 120 seconds. Running buffer used was HBS-EP+ (GE Healthcare, BR-1006-69) at 25° C., with a flow-rate of […]. For immobilization by amine coupling, EDC/NHS was used for activation and ethanolamine HCl for deactivation (Biacore, amine coupling kit). Nanobodies were evaluated at a concentration range between 1.37 nM and 3 μM. Nanobodies were allowed to associate for 2 min and to dissociate for 15 min at a flow rate of […]. In between injections, the surfaces were regenerated with a 3 min pulse of 3M MgCl2 and 2 min stabilization period. Evaluation of the association/dissociation data was performed by fitting a 1:1 interaction model (Langmuir binding model) by Biacore TWO software v2.0.3.

T3 sequence (P61073 whole entry): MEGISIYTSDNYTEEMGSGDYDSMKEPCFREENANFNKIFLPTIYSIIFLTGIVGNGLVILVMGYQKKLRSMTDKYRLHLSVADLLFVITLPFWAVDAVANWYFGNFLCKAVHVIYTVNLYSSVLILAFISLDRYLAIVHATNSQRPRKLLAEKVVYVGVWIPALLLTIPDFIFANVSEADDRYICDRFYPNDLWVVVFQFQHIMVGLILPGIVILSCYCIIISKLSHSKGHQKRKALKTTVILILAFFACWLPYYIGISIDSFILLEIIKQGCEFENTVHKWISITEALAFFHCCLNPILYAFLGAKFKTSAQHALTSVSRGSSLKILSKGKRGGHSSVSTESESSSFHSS
T4 sequence (P61073 whole entry): as above
T5 sequence (P61073 whole entry): as above

B1: CD4#8: anti-CD4 Nanobody, SEQ ID NO: 25 (protein)
VHH: EVQLVESGGGSVQPGGSLTLSCGTSGRTFNVMGWFRQAPGKEREFVAAVRWSSTGIYYTQYADSVKSRFTISRDNAKNTVYLEMNSLKPEDTAVYYCAADTYNSNPARWDGYDFRGQGTQVTVSS
binding to CD4+ gated and CD8+ gated T cells [1]: strong binding to the CD4+ gated population; also recorded: only a low signal was observed to the CD8+ population
binding to isolated CD8+ T cells (cytotoxic CD8+ T cells): No binding
inhibition of gp120 - CD4 interaction [2]: inhibit the interaction with gp120

B2: CD123#1: anti-IL-3Ra (CD123) Nanobody, SEQ ID NO: 15 (protein)
VHH: EVQLVESGGGLVQAGGSLRLSCAASGSIFSGNVMGWYRRQAPGKEREWVAAIASGGSIYYRDSVKGRFTISRDNAKNTVYLQMNSLKPEDTAVYYCNSHPPTLPYWGLGTQVTVSS
SPR - IL-3Ra ka [3]: 1e+06 M⁻¹ s⁻¹
SPR - IL-3Ra kd [3]: 0.00081 s⁻¹
binding to HEK293T-wt cells (HEK293T-wt cells): lack of binding

B3: 238D4: full blocking control CXCR4 Nanobody (protein)
VHH: EVQLMESGGGLVQAGGSLRLSCAASGRTFNNYAMGWFRRAPGKEREFVAAITRSGVRSGVSAIYGDSVKDRFTISRDNAKNTLYLQMNSLKPEDTAVYTCAASAIGSGALRRFEYDYSGQGTQVTVSS
EC50 [4]: 3.4 nM
efficacy of SDF-1 displacement ([5]; radio-ligand displacement): full efficacy
Ki ([5]; read-out: Ligand competition [125I]-SDF-1 Ki, 75 pM [125I]-CXCL12): 5.4 nM
IC50 [6]: 7.6 nM
IC50 [7]: 2.1 nM

B4: CD123#2: anti-IL-3Ra (CD123) Nanobody, SEQ ID NO: 14 (protein)
VHH: EVQLVESGGGSVQAGGSLRLSCTTSGRALNMYVMGWFRQAPGNEREFVAATSSSGGSTSYPDSVKGRFTISRDNAKNTVYLQMNSLKPEDTAAYRCAASPYVSTPTMNILEEYRYWGLGTQVTVSS
SPR - IL-3Ra ka [3]: 84000 M⁻¹ s⁻¹
SPR - IL-3Ra kd [3]: 0.0014 s⁻¹
binding to HEK293T-wt cells (HEK293T-wt cells): lack of binding

B5: IL12Rb1#30: IL-12Rβ1 specific ligand competing Nanobody (protein)
VHH: EVQLVESGGGLVQTGGSLRLSCAASGRTPRLVAMGWFRQTPGKEREFVGEIILSKGFTYYADSVKGRFTISRVNAKNTITMYLQMNSLKSEDTAVYYCAGRQNWSGSPARTNEYEYWGQGTLVTVSS
binding to CD4+ gated and CD8+ gated T cells [1]: low fluorescence signals to both CD4+ and CD8+ cells
binding to isolated CD8+ T cells (cytotoxic CD8+ T cells): did bind
Binding kinetics (SPR) ka (1/Ms), IL12Rβ1 [8]: 450000 M⁻¹ s⁻¹
Binding kinetics (SPR) kd (1/s), IL12Rβ1 [8]: 0.0015 s⁻¹
